# Measurements taken from PMC10255477, “The Inhibitory Effects and Cytotoxic Activities of the Stem Extract of Nepenthes miranda against Single-Stranded DNA-Binding Protein and Oral Carcinoma Cells”.
# Experiments:
# [1] = biological target: T1, KpSSB (single-stranded DNA-binding protein) (Klebsiella pneumoniae, UniProt A6TGW7 1-174); test: EMSA; up to 5000 nM protein, no shift; EMSA: 40 mM Tris-HCl pH 7.5, 50 mM NaCl, 37 °C, 60 min; DNA 30 fmol/uL; 8% native PAGE in TBE; [Protein]50 by linear interpolation; details: protein: recombinant, chain copies: 4
# [2] = biological target: T1, KpSSB (single-stranded DNA-binding …); test: EMSA; EMSA: 40 mM Tris-HCl pH 7.5, 50 mM NaCl, 37 °C, 60 min; DNA 30 fmol/uL; 8% native PAGE in TBE; [Protein]50 by linear interpolation; details: protein: recombinant; chain copies: 4; label: 5' biotin
# T1 sequence (A6TGW7 whole entry): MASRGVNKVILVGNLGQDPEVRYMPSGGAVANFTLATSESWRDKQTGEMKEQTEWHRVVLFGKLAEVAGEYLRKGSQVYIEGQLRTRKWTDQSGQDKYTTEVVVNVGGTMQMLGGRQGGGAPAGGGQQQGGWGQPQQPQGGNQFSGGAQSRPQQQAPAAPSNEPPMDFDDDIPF
Binder,apparent K (half saturation) [2] [nM],other results
PS4/PS3 (dsDNA) DNA 1: GGGTACCGAGCTATCCGAATTCGGG DNA 2: CCCGAATTCGGATAGCTCGGTACCC,,"binding result ([1]; blunt, 25 bp): no binding"
TTTTTTTTTTTTTTTTTTTT (ssDNA) [dT20],,binding result ([1]; label: 5' biotin): no binding
TTTTTTTTTTTTTTTTTTTTTTTTTTTTTTTTTTT (ssDNA) [dT35],117 ± 18,
TTTTTTTTTTTTTTTTTTTTTTTTTTTTTT (ssDNA) [dT30],155 ± 20,
